Columns and labels:
[1] = target: PP2Ac of COS-1 cells (endogenous PP2A catalytic subunit / PP2A activity); assay: 12CA5 immunoprecipitation from transfected COS-1 cells, PP2A activity on 32P-LRRASVA
[2] = target: PP2Ac of COS-1 cells (endogenous PP2A catalytic subunit / PP2A activity); assay: 12CA5 immunoprecipitation from transfected COS-1 cells, PP2A activity in the precipitate
[3] = target: 32P-labeled synthetic peptide LRRASVA (Kemptide Val^6, Ala^7) (Artificial Sequence)

| PP2A activity with 32P-labeled synthetic peptide (LRRASVA) as substrate, with and without 10 nM okadaic acid [3] [U/mg] | Substance | % immunoprecipitated (of PP2A activity) [1] [%] | PP2A activity in immunoprecipitates (mU) [1] [mU] | fold PP2A activity against eRF1 immunoprecipitates [2] [fold] |
| --- | --- | --- | --- | --- |
| – | HA-tagged human PR65α expressed in COS-1 cells (from UniProt P30153) | 3.7 | 17 | 10 |
| 2.4 | PP2Ac of COS-1 cells (endogenous PP2A catalytic subunit / PP2A activity) (enzyme) | – | – | – |
